[ ]: non-standard residue; d: D form. Nle = CCCC[C@H](N)C(=O)O; Orn = NCCC[C@H](N)C(=O)O; Dab = NCC[C@H](N)C(=O)O; Sar = CNCC(=O)O
Assays:
[1] = target: recombinant human melanocortin-1 receptor (hMCR-1a) in membrane homogenates of HEK-293 cells (human) (UniProt Q01726); assay: competitive inhibition of [I125]-NDP-alpha-MSH, hMCR-1 HEK-293 membranes
[2] = target: recombinant human melanocortin-4 receptor (hMCR-4) in membrane homogenates of HEK-293 cells (human) (UniProt P32245); assay: competitive inhibition of [I125]-NDP-alpha-MSH, hMCR-4 HEK-293 membranes
Chain of recombinant human melanocortin-4 receptor (hMCR-4) in membrane homogenates of HEK-293 cells (human) (P32245 whole entry): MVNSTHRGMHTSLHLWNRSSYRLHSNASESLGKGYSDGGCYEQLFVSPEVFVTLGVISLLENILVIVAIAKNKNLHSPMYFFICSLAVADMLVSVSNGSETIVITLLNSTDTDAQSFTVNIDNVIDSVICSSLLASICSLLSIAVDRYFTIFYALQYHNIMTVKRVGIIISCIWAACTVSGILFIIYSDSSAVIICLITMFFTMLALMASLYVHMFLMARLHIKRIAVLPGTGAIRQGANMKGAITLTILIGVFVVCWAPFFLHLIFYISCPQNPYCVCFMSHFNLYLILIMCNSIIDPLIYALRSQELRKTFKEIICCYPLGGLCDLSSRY

Chain of recombinant human melanocortin-1 receptor (hMCR-1a) in membrane homogenates of HEK-293 cells (human) (Q01726 whole entry): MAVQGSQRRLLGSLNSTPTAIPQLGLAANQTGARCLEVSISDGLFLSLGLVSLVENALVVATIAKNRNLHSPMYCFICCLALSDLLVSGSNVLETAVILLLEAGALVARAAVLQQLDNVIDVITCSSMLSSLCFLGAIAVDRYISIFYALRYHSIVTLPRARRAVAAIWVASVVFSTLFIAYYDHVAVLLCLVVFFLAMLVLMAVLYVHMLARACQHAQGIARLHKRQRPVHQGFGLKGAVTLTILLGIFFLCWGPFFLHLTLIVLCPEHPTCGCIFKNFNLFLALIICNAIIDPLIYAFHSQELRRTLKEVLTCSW

| Ki [1] | Ki [2] | Binder |
| --- | --- | --- |
| 14 nM | 6200 nM | Ac-[Nle]AH[dF]R[dP]W-NH2 (SMILES CCCC[C@H](NC(C)=O)C(=O)N[C@@H](C)C(=O)N[C@@H](Cc1c[nH]cn1)C(=O)N[C@H](Cc1ccccc1)C(=O)N[C@@H](CCCNC(=N)N)C(=O)N1CCC[C@@H]1C(=O)N[C@@H](Cc1c[nH]c2ccccc12)C(N)=O) [Ac-Nle-Ala-His-D-Phe-Arg-D-Pro-Trp-NH2] |
| 0.3 nM | 7580 nM | Ac-[Nle]A[Orn][dF]RAW-NH2 (SMILES CCCC[C@H](NC(C)=O)C(=O)N[C@@H](C)C(=O)N[C@@H](CCCN)C(=O)N[C@H](Cc1ccccc1)C(=O)N[C@@H](CCCNC(=N)N)C(=O)N[C@@H](C)C(=O)N[C@@H](Cc1c[nH]c2ccccc12)C(N)=O) [Ac-Nle-Ala-Orn-D-Phe-Arg-Ala-Trp-NH2] |
| 7 nM | 215 nM | Ac-[Nle]AH[dF]RA[dW]-NH2 (SMILES CCCC[C@H](NC(C)=O)C(=O)N[C@@H](C)C(=O)N[C@@H](Cc1c[nH]cn1)C(=O)N[C@H](Cc1ccccc1)C(=O)N[C@@H](CCCNC(=N)N)C(=O)N[C@@H](C)C(=O)N[C@H](Cc1c[nH]c2ccccc12)C(N)=O) [Ac-Nle-Ala-His-D-Phe-Arg-Ala-D-Trp-NH2] |
| 2 nM | 870 nM | Ac-[Nle]AH[dF]R[Sar]W-NH2 (SMILES CCCC[C@H](NC(C)=O)C(=O)N[C@@H](C)C(=O)N[C@@H](Cc1c[nH]cn1)C(=O)N[C@H](Cc1ccccc1)C(=O)N[C@@H](CCCNC(=N)N)C(=O)N(C)CC(=O)N[C@@H](Cc1c[nH]c2ccccc12)C(N)=O) [Ac-Nle-Ala-His-D-Phe-Arg-Sar-Trp-NH2] |
| 2 nM | 650 nM | Ac-[Nle]AH[dF]RP[dW]-NH2 (SMILES CCCC[C@H](NC(C)=O)C(=O)N[C@@H](C)C(=O)N[C@@H](Cc1c[nH]cn1)C(=O)N[C@H](Cc1ccccc1)C(=O)N[C@@H](CCCNC(=N)N)C(=O)N1CCC[C@H]1C(=O)N[C@H](Cc1c[nH]c2ccccc12)C(N)=O) [Ac-Nle-Ala-His-D-Phe-Arg-Pro-D-Trp-NH2] |
| 2 nM | 7850 nM | Ac-[Nle]A[Dab][dF]RAW-NH2 (SMILES CCCC[C@H](NC(C)=O)C(=O)N[C@@H](C)C(=O)N[C@@H](CCN)C(=O)N[C@H](Cc1ccccc1)C(=O)N[C@@H](CCCNC(=N)N)C(=O)N[C@@H](C)C(=O)N[C@@H](Cc1c[nH]c2ccccc12)C(N)=O) [Ac-Nle-Ala-Dab-D-Phe-Arg-Ala-Trp-NH2] |
